# Target: the molecule itself
# Experiment: crystal structure
protein,measurement,value
SARS-CoV main protease (M^pro) (enzyme) SGFRKMAFPSGKVEGCMVQVTCGTTTLNGLWLDDTVYCPRHVICTAEDMLNPNYEDLLIRKSNHSFLVQAGNVQLRVIGHSMQNCLLRLKVDTSNPKTPKYKFVRIQPGQTFSVLACYNGSPSGVYQCAMRPNHTIKGSFLNGSCGSVGFNIDYDCVSFCYMHHMELPTGVHAGTDLEGKFYGPFVDRQTAQAAGTDTTITLNVLAWLYAAVINGDRWFLNRFTTTLNDFNLVAMKYNYEPLTQDHVDILGPLSAQTGIAVLDMCAALKELLQNGMNGRTILGSTILEDEFTPFDVVRQCSGVTFQ,binding result,binds
